Key:
Experiment in all cases: holdup assay
Parameters in all cases: key: below the threshold = too weak to quantify, mostly under pKd 3.1 to 4
FRMPD2_2, Q68DX3 = molecular target: FRMPD2_2, Q68DX3
IL16_4, Q14005 = molecular target: IL16_4, Q14005
PARD3_3, Q8TEW0 = molecular target: PARD3_3, Q8TEW0
HTRA4, P83105 = molecular target: T1, HTRA4, P83105
T1 sequence (P83105 378-476, limits assumed, looked up): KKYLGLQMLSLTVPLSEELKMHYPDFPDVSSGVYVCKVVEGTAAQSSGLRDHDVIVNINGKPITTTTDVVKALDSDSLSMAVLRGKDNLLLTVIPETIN

PCLO, Q9Y6V0 = molecular target: T2, PCLO, Q9Y6V0
T2 sequence (Q9Y6V0 4491-4600, limits assumed, looked up): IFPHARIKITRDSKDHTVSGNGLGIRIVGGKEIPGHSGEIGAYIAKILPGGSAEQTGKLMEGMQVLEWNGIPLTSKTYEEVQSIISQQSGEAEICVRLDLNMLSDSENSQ

GORASP1, Q9BQQ3 = molecular target: GORASP1, Q9BQQ3
IL16_3, Q14005 = molecular target: IL16_3, Q14005
GRIP1_7, Q9Y3R0 = molecular target: T3, GRIP1_7, Q9Y3R0
T3 sequence (Q9Y3R0 999-1096, limits assumed, looked up): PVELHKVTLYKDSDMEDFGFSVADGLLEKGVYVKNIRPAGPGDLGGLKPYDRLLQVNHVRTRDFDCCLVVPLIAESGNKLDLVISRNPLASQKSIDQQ

RADIL, Q96JH8 = molecular target: T4, RADIL, Q96JH8
T4 sequence (Q96JH8 971-1071, limits assumed, looked up): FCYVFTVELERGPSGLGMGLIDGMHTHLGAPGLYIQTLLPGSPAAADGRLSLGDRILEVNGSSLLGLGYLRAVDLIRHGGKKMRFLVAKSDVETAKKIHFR

DLG5_1, Q8TDM6 = molecular target: DLG5_1, Q8TDM6
FRMPD4, Q14CM0 = molecular target: FRMPD4, Q14CM0
MPP6, Q9NZW5 = molecular target: T5, MPP6, Q9NZW5
T5 sequence (Q9NZW5 125-219, limits assumed, looked up): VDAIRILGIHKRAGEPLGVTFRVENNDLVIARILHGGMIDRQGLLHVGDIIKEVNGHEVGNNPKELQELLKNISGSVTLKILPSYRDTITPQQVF

HTRA1, Q92743 = molecular target: HTRA1, Q92743
SNTG1, Q9NSN8 = molecular target: T6, SNTG1, Q9NSN8
T6 sequence (Q9NSN8 52-150, limits assumed, looked up): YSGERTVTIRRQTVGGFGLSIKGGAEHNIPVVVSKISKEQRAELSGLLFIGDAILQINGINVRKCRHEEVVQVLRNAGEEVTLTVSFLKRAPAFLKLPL

MPDZ_12, O75970 = molecular target: T7, MPDZ_12, O75970
T7 sequence (O75970 1857-1958, limits assumed, looked up): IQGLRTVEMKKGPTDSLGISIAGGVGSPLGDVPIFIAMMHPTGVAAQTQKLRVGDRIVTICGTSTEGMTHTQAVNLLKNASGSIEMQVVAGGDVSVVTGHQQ

LIMK2, P53671 = molecular target: LIMK2, P53671
LNX1_3, Q8TBB1 = molecular target: LNX1_3, Q8TBB1
Inadl_3, Q8NI35 = molecular target: Inadl_3, Q8NI35
Inadl_5, Q8NI35 = molecular target: Inadl_5, Q8NI35
SNTB1, Q13884 = molecular target: T8, SNTB1, Q13884
T8 sequence (Q13884 107-205, limits assumed, looked up): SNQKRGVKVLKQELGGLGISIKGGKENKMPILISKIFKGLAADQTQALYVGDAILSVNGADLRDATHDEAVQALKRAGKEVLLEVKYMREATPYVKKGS

GRASP, Q7Z6J2 = molecular target: GRASP, Q7Z6J2
LNX2_2, Q8N448 = molecular target: T9, LNX2_2, Q8N448
T9 sequence (Q8N448 334-432, limits assumed, looked up): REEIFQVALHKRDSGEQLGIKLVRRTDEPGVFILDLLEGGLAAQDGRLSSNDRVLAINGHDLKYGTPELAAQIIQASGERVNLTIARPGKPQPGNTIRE

PDZRN3_1, Q9UPQ7 = molecular target: T10, PDZRN3_1, Q9UPQ7
T10 sequence (Q9UPQ7 244-349, limits assumed, looked up): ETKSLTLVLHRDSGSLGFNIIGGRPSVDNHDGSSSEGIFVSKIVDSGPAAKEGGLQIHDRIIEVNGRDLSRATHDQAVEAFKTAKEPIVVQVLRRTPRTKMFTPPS

FRMPD2_1, Q68DX3 = molecular target: FRMPD2_1, Q68DX3
HTRA3, P83110 = molecular target: T11, HTRA3, P83110
T11 sequence (P83110 354-453, limits assumed, looked up): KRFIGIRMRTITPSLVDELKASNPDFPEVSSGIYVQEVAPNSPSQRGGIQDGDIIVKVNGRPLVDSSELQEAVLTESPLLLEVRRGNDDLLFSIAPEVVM

NHERF4_1, Q86UT5-2 = molecular target: NHERF4_1, Q86UT5-2
[1] = plain residues with an end cap or a label only (N-terminal biotin on a linker: ado-ado)
[2] = plain residues with an end cap or a label only (N-terminal biotin on a linker: ahx)

Chain of NHERF4_1, Q86UT5-2 (Q86UT5 other isoform, or with tags, fused parts or gaps): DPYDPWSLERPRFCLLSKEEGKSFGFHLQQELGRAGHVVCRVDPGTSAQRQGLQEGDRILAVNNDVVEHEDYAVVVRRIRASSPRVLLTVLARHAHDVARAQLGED
Chain of GORASP1, Q9BQQ3 (Q9BQQ3 1-208): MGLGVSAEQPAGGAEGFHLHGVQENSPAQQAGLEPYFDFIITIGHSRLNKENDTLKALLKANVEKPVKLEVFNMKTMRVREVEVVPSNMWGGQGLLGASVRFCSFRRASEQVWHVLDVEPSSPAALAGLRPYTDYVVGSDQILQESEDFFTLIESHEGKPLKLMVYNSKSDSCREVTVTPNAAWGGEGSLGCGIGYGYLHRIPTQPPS
Chain of GRASP, Q7Z6J2 (Q7Z6J2 96-193): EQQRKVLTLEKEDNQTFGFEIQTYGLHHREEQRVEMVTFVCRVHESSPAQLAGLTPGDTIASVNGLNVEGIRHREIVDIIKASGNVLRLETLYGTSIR
Chain of PARD3_3, Q8TEW0 (Q8TEW0 582-685): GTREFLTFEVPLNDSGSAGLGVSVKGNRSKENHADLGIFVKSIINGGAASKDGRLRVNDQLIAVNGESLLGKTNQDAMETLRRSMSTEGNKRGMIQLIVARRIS
Chain of FRMPD2_2, Q68DX3 (Q68DX3 944-1038): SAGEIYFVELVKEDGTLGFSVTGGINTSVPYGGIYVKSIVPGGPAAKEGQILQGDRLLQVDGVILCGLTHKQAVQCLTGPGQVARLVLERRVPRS
Chain of FRMPD2_1, Q68DX3 (Q68DX3 770-861): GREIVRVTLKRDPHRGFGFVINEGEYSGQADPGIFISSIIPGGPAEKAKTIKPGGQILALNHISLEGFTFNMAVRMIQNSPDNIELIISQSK
Chain of Inadl_3, Q8NI35 (Q8NI35 359-469): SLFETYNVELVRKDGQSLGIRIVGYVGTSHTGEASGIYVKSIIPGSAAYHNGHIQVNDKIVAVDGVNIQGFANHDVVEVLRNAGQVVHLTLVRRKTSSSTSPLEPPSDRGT
Chain of IL16_4, Q14005 (Q14005 1229-1329): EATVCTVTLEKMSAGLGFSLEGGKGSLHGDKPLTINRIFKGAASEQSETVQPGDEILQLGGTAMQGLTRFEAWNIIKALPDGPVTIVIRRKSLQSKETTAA
Chain of HTRA1, Q92743 (Q92743 360-477): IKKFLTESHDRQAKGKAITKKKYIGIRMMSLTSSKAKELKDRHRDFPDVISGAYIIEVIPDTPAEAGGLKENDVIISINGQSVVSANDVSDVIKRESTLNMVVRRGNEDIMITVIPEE
Chain of Inadl_5, Q8NI35 (Q8NI35 673-780): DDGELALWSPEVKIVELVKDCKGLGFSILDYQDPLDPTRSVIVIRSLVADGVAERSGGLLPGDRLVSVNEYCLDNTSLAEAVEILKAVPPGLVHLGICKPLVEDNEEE
Chain of LIMK2, P53671 (P53671 143-248): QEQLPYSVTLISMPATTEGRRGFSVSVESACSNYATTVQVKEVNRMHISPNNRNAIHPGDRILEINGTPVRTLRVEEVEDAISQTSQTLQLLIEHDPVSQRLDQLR
Chain of DLG5_1, Q8TDM6 (Q8TDM6 617-713): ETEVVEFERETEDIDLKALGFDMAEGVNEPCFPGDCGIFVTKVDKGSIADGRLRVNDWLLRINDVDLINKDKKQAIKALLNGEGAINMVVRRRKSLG
Chain of LNX1_3, Q8TBB1 (Q8TBB1 500-596): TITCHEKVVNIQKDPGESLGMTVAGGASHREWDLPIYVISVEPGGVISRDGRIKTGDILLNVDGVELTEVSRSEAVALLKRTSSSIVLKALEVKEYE
Chain of IL16_3, Q14005 (Q14005 1107-1207): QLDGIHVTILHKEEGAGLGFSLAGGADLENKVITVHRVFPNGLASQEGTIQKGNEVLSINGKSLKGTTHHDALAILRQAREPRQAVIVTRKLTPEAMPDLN
Chain of FRMPD4, Q14CM0 (Q14CM0 67-160): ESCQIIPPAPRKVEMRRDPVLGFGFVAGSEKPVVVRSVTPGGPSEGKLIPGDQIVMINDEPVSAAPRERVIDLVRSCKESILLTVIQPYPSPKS

B1: CBY2, Q8NA61 (peptide)
chain: SQDPKKPSRV
With B1 the pKd (FRMPD2_2, Q68DX3; [1]) was “below the threshold”, the pKd (IL16_4, Q14005; [1]) was “below the threshold” and the pKd (PARD3_3, Q8TEW0; [1]) was “below the threshold”. The pKd (HTRA4, P83105; [1]) was 3.9, the pKd (PCLO, Q9Y6V0; [1]) was “below the threshold” and the pKd (GORASP1, Q9BQQ3; [1]) was “below the threshold”. For the same binder, the pKd (IL16_3, Q14005; [1]) was “below the threshold”, the pKd (GRIP1_7, Q9Y3R0; [1]) was “below the threshold” and the pKd (RADIL, Q96JH8; [1]) was 3.61. The pKd (DLG5_1, Q8TDM6; [1]) was “below the threshold”, the pKd (FRMPD4, Q14CM0; [1]) was “below the threshold” and the pKd (MPP6, Q9NZW5; [1]) was 3.89. For the same binder, the pKd (HTRA1, Q92743; [1]) was “below the threshold”, the pKd (SNTG1, Q9NSN8; [1]) was “below the threshold” and the pKd (MPDZ_12, O75970; [1]) was “below the threshold”. For the same binder, the pKd (LIMK2, P53671; [1]) was “below the threshold”, the pKd (LNX1_3, Q8TBB1; [1]) was “below the threshold” and the pKd (Inadl_3, Q8NI35; [1]) was “below the threshold”. For the same binder, the pKd (Inadl_5, Q8NI35; [1]) was “below the threshold”, the pKd (SNTB1, Q13884; [1]) was “below the threshold” and the pKd (GRASP, Q7Z6J2; [1]) was “below the threshold”. The pKd (LNX2_2, Q8N448; [1]) was “below the threshold”, the pKd (PDZRN3_1, Q9UPQ7; [1]) was 3.56 and the pKd (FRMPD2_1, Q68DX3; [1]) was “below the threshold”. For the same binder, the pKd (HTRA3, P83110; [1]) was “below the threshold” and the pKd (NHERF4_1, Q86UT5-2; [1]) was “below the threshold”.

B2: CNTNAP4, Q9C0A0 (peptide)
chain: VNENQKEYFF
For B2, the pKd (FRMPD2_2, Q68DX3; [2]) was “below the threshold”, the pKd (IL16_4, Q14005; [2]) was “below the threshold” and the pKd (PARD3_3, Q8TEW0; [2]) was 5.32. The pKd (HTRA4, P83105; [2]) was “below the threshold”, the pKd (PCLO, Q9Y6V0; [2]) was “below the threshold” and the pKd (GORASP1, Q9BQQ3; [2]) was “below the threshold”. The pKd (IL16_3, Q14005; [2]) was “below the threshold”, the pKd (GRIP1_7, Q9Y3R0; [2]) was 4.14 and the pKd (RADIL, Q96JH8; [2]) was 4.3. The pKd (DLG5_1, Q8TDM6; [2]) was “below the threshold”, the pKd (FRMPD4, Q14CM0; [2]) was 4.65 and the pKd (MPP6, Q9NZW5; [2]) was “below the threshold”. For the same binder, the pKd (HTRA1, Q92743; [2]) was 4.72, the pKd (SNTG1, Q9NSN8; [2]) was “below the threshold” and the pKd (MPDZ_12, O75970; [2]) was “below the threshold”. The pKd (LIMK2, P53671; [2]) was “below the threshold”, the pKd (LNX1_3, Q8TBB1; [2]) was “below the threshold” and the pKd (Inadl_3, Q8NI35; [2]) was 3.95. The pKd (Inadl_5, Q8NI35; [2]) was 3.61, the pKd (SNTB1, Q13884; [2]) was “below the threshold” and the pKd (GRASP, Q7Z6J2; [2]) was “below the threshold”. The pKd (LNX2_2, Q8N448; [2]) was “below the threshold”, the pKd (PDZRN3_1, Q9UPQ7; [2]) was “below the threshold” and the pKd (FRMPD2_1, Q68DX3; [2]) was “below the threshold”. The pKd (HTRA3, P83110; [2]) was “below the threshold” and the pKd (NHERF4_1, Q86UT5-2; [2]) was 3.51.

B3: FMNL3, Q8IVF7 (peptide)
chain: DAAHHDESNC
For B3, the pKd (FRMPD2_2, Q68DX3; [1]) was “below the threshold”, the pKd (IL16_4, Q14005; [1]) was “below the threshold” and the pKd (PARD3_3, Q8TEW0; [1]) was “below the threshold”. For the same binder, the pKd (HTRA4, P83105; [1]) was “below the threshold”, the pKd (PCLO, Q9Y6V0; [1]) was “below the threshold” and the pKd (GORASP1, Q9BQQ3; [1]) was “below the threshold”. For the same binder, the pKd (IL16_3, Q14005; [1]) was “below the threshold”, the pKd (GRIP1_7, Q9Y3R0; [1]) was “below the threshold” and the pKd (RADIL, Q96JH8; [1]) was “below the threshold”. The pKd (DLG5_1, Q8TDM6; [1]) was “below the threshold”, the pKd (FRMPD4, Q14CM0; [1]) was “below the threshold” and the pKd (MPP6, Q9NZW5; [1]) was “below the threshold”. For the same binder, the pKd (HTRA1, Q92743; [1]) was 3.76, the pKd (SNTG1, Q9NSN8; [1]) was “below the threshold” and the pKd (MPDZ_12, O75970; [1]) was “below the threshold”. The pKd (LIMK2, P53671; [1]) was “below the threshold”, the pKd (LNX1_3, Q8TBB1; [1]) was “below the threshold” and the pKd (Inadl_3, Q8NI35; [1]) was “below the threshold”. For the same binder, the pKd (Inadl_5, Q8NI35; [1]) was “below the threshold”, the pKd (SNTB1, Q13884; [1]) was “below the threshold” and the pKd (GRASP, Q7Z6J2; [1]) was “below the threshold”. For the same binder, the pKd (LNX2_2, Q8N448; [1]) was “below the threshold”, the pKd (PDZRN3_1, Q9UPQ7; [1]) was “below the threshold” and the pKd (FRMPD2_1, Q68DX3; [1]) was “below the threshold”. The pKd (HTRA3, P83110; [1]) was “below the threshold” and the pKd (NHERF4_1, Q86UT5-2; [1]) was “below the threshold”.

Reference: PMC9482650, “Quantitative fragmentomics allow affinity mapping of interactomes” (Nature Communications, 2022)
